Test [1] has as its target extracellular part of mouse (mus musculus) TL1A protein (mouse). The test can be described thus: ELISA on coated extracellular part of TL1A (2 µg/mL), dose dilution of chimeric 5G6, HRP anti-human IgG. For orientation: ELISA stands for enzyme-linked immunosorbent assay.
Test [2] concerns the target T1, recombinant human TL1A-his (processed secreted human TL1A with an N-terminal his-tag) (human, UniProt O95150 72-251).
T1 construct: also called recombinant histidine tagged human TL1A; histidine-tagged human TL1A
T1 sequence: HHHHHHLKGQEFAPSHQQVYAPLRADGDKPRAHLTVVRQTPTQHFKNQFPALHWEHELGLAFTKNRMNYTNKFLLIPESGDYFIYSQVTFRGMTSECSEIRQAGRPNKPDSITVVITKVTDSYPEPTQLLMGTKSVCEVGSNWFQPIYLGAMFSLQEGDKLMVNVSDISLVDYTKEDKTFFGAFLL
Description: SPR (BIAcore 2000), antibody captured on protein-A, his-tagged human TL1A as analyte. How it is done:
Kinetic binding affinity constants (KD) were measured on protein-A captured antibody using recombinant histidine tagged TL1A as analyte. Measurements were conducted on a BIAcore 2000 (GE Healthcare—BIAcore, GE Healthcare Europe GmbH, Glattbrugg, Switzerland) at room temperature, and analyzed with the BiaEvaluation software (BIAcore; v4.1. GE Healthcare Europe GmbH).
Following this capture step, the recombinant histidine tagged human TL1A was injected at different concentrations (1.25 to 125 nM) on the flow-path 1 and 2 (flow-path 1 being used as reference) at a 30 μl/min flow rate. After each binding event, surface was regenerated with glycine buffer pH 1.5 injected for 20 sec (30 μL/min).
Measurements (sensorgram: fc2-fc1) were best fitted with a 1:1 analyte model without mass transfer. To account for the experimental variations in protein-A captured antibody at the beginning of each measurement, the Rmax value was set to local in all fits. Dissociation times were of at least 300-600 seconds. Measurements were performed in duplicate and included zero-concentration samples for referencing. The Chi2 value represents the sum of squared differences between the experimental data and reference data at each point; while the plots of residuals indicate the difference between the experimental and reference data for each point in the fit. Both Chi2 and residual values were used to evaluate the quality of a fit between the experimental data and individual binding models.
(In general: Surface plasmon resonance follows binding to a sensor surface in real time, without labels.)

Test [3] concerns the target T2, extracellular part of cynomologus monkey (macaca fascicularis) TL1A protein (cynomolgus monkey (macaca fascicularis), UniProt O95150 57-251 (human entry)).
T2 construct: also called cyno TL1A; cynomologus monkey TL1A
T2 chain: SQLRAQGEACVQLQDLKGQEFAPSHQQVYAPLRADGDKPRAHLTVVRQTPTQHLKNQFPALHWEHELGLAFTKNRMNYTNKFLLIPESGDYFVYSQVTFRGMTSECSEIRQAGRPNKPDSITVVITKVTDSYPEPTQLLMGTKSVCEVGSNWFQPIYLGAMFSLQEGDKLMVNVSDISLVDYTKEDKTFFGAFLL
Description: ELISA on coated extracellular part of TL1A (2 µg/mL), dose dilution of chimeric 5G6, HRP anti-human IgG. As to the method: (§1) The reactivity of the parental 5G6 antibody (produced as a chimeric antibody with Human Fc) on the extracellular part of TL1A from diverse species was tested by ELISA. The extracellular part of TL1A protein corresponding to human (homo sapiens), rat (ratus norvegicus), mouse (mus musculus) and cynomologus monkey (macaca fascicularis) sequences (SEQ ID NOS: 38, 39, 40 and 41, respectively) was immobilized on high binding 96-well plates (Costar, USA; distributor VWR AG, Nyon, Switzerland) overnight at a concentration of 2 μg/mL at 4° C. in PBS. Plates were blocked with 2% BSA albumin (BSA, Sigma-Aldrich Chemie, Buchs, Switzerland) at RT for one hour. The blocking solution was removed and a dose dilution of 5G6 antibody was applied to the plates. Plates were incubated at RT for 60 minutes, washed six times with PBS 0.01% Tween-20 and the TMB substrate (Bio-rad Laboratories AG, Reinach, Switzerland) was added to the plates. […] The plates were read for absorbance at 450 nm by a microplate reader (Biotek, USA; distributor: WITTEC AG, Littau, Switzerland).

Test [4] addresses T3, extracellular part of rat (ratus norvegicus) TL1A protein (rat, UniProt Q8K3Y7 61-252).
T3 construct: also called rat TL1A
T3 sequence: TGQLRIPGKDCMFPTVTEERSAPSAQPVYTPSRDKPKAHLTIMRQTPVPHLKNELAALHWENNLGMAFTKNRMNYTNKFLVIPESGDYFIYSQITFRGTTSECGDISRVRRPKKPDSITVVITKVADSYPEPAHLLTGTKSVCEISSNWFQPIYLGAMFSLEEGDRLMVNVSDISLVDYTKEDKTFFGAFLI
The test is described as above. How it is done: as §1

The target in test [5] is T4, extracellular part of human (homo sapiens) TL1A protein (human, UniProt O95150 57-251).
T4 construct: also called human TL1A
T4 sequence: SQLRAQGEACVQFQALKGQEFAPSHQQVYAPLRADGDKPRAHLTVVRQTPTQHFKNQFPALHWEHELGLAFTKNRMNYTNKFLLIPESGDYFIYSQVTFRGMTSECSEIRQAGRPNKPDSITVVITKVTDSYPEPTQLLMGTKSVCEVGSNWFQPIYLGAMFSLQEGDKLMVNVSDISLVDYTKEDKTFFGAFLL
The test is described as above. As to the method: as §1

B1: 5G6 chimeric antibody (murine 5G6 variable domains fused to human IgG1 heavy chain constant domains and a human kappa constant domain) (antibody, V domains shown)
VH: QVQLQQPGSVLVRPGASVKVSCKASGYTFTSSWMHWAKQRPGQGLEWIGEIHPNSGGTNYNEKFKGKATLTVDTSSSTAYVDLSSLTSEDSAVYYCARGDYYGYVSWFAYWGQGTLVTVSS
VL: DIQMNQSPSSLSASLGDTITITCHASQNINVLLSWYQQKPGNIPKLLIYKASNLHTGVPSRFSGSGSGTGFTFTISSLQPEDIATYYCQQGQSYPYTFGGGTKLEIKR
notes: Human IGHG1 / kappa chimera; also called Chimera; parental 5G6
Turning to B1, the EC50 (read off the curve) was 20 ng/mL in test [1], roughly 3 ng/mL in test [3], roughly 8 ng/mL in test [4] and roughly 3 ng/mL in test [5]. In addition, the Kd in test [2] worked out at 728 pM.

B2: VH4/VL1 humanized 5G6 antibody (antibody, human IgG1, kappa, V domains shown)
VH: QVQLVQSGAEVKKPGASVKVSCKASGYTFTSSWMHWARQAPGQGLEWIGEIHPNSGGTNYAQKFQGRVTMTVDTSISTAYMELSRLRSDDTAVYYCARGDYYGYVSWFAYWGQGTLVTVSS
VL: DIQMTQSPSSLSASVGDRVTITCQASQNINVLLNWYQQKPGKAPKLLIYKASNLHTGVPSRFSGSGSGTDFTFTISSLQPEDIATYYCQQGQSYPYTFGQGTKLEIKR
As for B2, the Kd in test [2] came out at 681 pM.

B3: VH2/VL2 humanized 5G6 antibody (antibody, human IgG1, kappa, V domains shown)
VH: QVQLVQSGAEVKKPGASVKVSCKASGYTFTSSWMHWARQAPGQGLEWIGEIHPNSGGTNYAQKFQGRATLTVDTSSSTAYMELSRLRSDDTAVYYCARGDYYGYVSWFAYWGQGTLVTVSS
VL: DIQMNQSPSSLSASVGDRVTITCQASQNINVLLSWYQQKPGKAPKLLIYKASNLHTGVPSRFSGSGSGTDFTFTISSLQPEDIATYYCQQGQSYPYTFGQGTKLEIKR
Turning to B3, the Kd in test [2] was determined as 857 pM.

B4: VH3/VL1 humanized 5G6 antibody (antibody, human IgG1, kappa, V domains shown)
VH: QVQLVQSGAEVKKPGASVKVSCKASGYTFTSSWMHWARQAPGQGLEWIGEIHPNSGGTNYAQKFQGRATMTVDTSISTAYMELSRLRSDDTAVYYCARGDYYGYVSWFAYWGQGTLVTVSS
VL: DIQMTQSPSSLSASVGDRVTITCQASQNINVLLNWYQQKPGKAPKLLIYKASNLHTGVPSRFSGSGSGTDFTFTISSLQPEDIATYYCQQGQSYPYTFGQGTKLEIKR
In the case of B4, the Kd in test [2] was found to be 249 pM.

One may read the EC50 (read off the curve) as the concentration that produces a half-maximal response. For orientation: Kd means the equilibrium constant for the complex coming apart.
